This assay deals with amino-terminal hexahistidine-tagged EttA-EQ2 (E. coli) (UniProt P0A9W3). Nature of the assay: pull-down.

Consider 1 substance from paper PMC4143144.

For “E. coli 70S ribosome (from UniProt P0A7L0 1-234; P62399 1-179; P0A7N9 1-55; P02359 1-179; P0A7R1 1-149) (complex)”, the stoichiometry N (EttA-EQ2:70S ribosome) is 1.
